The target of one assay is mPDL-1 (mouse) (UniProt Q9EP73). The assay can be described thus: mPD-1/mPD-L1 binding inhibition.
For a further assay, the target named is mPD-1 (mouse) (UniProt Q02242). Kind of assay: mPD-1/mPD-L1 binding inhibition.
Chain of mPD-1 (mouse) (Q02242 25-169): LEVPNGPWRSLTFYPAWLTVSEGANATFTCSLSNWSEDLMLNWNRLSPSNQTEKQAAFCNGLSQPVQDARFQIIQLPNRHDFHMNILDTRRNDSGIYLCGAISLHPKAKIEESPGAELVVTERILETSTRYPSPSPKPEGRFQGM

Chain of mPDL-1 (mouse) (Q9EP73 19-239): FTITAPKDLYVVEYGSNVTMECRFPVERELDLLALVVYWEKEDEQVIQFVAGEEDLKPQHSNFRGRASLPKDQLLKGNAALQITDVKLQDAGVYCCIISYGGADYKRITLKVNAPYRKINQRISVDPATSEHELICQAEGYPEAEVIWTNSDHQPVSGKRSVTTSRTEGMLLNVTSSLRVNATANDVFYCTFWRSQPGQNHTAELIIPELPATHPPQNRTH

Take Clone 10F.9G2: the IC50 with mPDL-1 (mouse) amounted to 1.09 nM. Consider Clone RMPI-14, for which the IC50 with mPD-1 (mouse) was found to be 31.1 nM.

What is called IC50 is the midpoint of a concentration-inhibition curve. Higher therefore signals a need for much substance.

The values above are taken from US20260146091A1.
